Measurements: paper PMC9371709 (Proceedings of the National Academy of Sciences of the …, 2022)
“And” between values parts separate entries of the source, which are not always exact repeats. Equal entries are not always repeated.

Key:
[1] = molecular target: the molecule itself; assay: cryo-EM structure
[2] = molecular target: the molecule itself; assay: SEC-MALS

B1: human Twinkle helicase W315L (C-terminal his-tag Δ42, FL residues 43–684) (enzyme, UniProt Q96RR1 43-684, looked up)
chain: ETLQALDMPVLPVTATEIRQYLRGHGIPFQDGHSCLRALSPFAESSQLKGQTGVTTSFSLFIDKTTGHFLCMTSLAEGSWEDFQASVEGRGDGAREGFLLSKAPEFEDSEEVRRIWNRAIPLWELPDQEEVQLADTMFGLTKVTDDTLKRFSVRYLRPARSLVFPWFSPGGSGLRGLKLLEAKCQGDGVSYEETTIPRPSAYHNLFGLPLISRRDAEVVLTSRELDSLALNQSTGLPTLTLPRGTTCLPPALLPYLEQFRRIVFWLGDDLRSLEAAKLFARKLNPKRCFLVRPGDQQPRPLEALNGGFNLSRILRTALPAWHKSIVSFRQLREEVLGELSNVEQAAGLRWSRFPDLNRILKGHRKGELTVFTGPTGSGKTTFISEYALDLCSQGVNTLWGSFEISNVRLARVMLTQFAEGRLEDQLDKYDHWADRFEDLPLYFMTFHGQQSIRTVIDTMQHAVYVYDICHVIIDNLQFMMGHEQLSTDRIAAQDYIIGVFRKFATDNNCHVTLVIHPRKEDDDKELQTASIFGSAKASQEADNVLILQDRKLVTGPGKRYLQVSKNRFDGDVGVFPLEFNKNSLTFSIPPKNKARLKKIKDDTGPVAKKPSSGKKGATTQNSEICSGQAPTPDQPDTSKRSK
- stoichiometry N [1]: 7 and 8
- stoichiometry N [2]: ~8
